From patent US20250313627A1

Legend:
[1] = target: human ROR1 (Receptor Tyrosine Kinase-Like Orphan Receptor 1) on the cell surface (human) (UniProt Q01973); assay: flow cytometry, LS174T cells expressing human ROR1 (low density)
[2] = target: human ROR1 (Receptor Tyrosine Kinase-Like Orphan Receptor 1) on the cell surface (human) (UniProt Q01973); assay: as above; remark: listed apart in the source
[3] = target: human ROR1 (Receptor Tyrosine Kinase-Like Orphan Receptor 1) on the cell surface (human) (UniProt Q01973); assay: flow cytometry, B16-F10 cells expressing human ROR1 (high density)
[4] = target: human ROR1 (Receptor Tyrosine Kinase-Like Orphan Receptor 1) on the cell surface (human) (UniProt Q01973); assay: as above; remark: listed apart in the source
[5] = target: human ROR1 (Receptor Tyrosine Kinase-Like Orphan Receptor 1) on the cell surface (human) (UniProt Q01973); assay: as above; remark: listed apart in the source
[6] = target: human ROR1 (Receptor Tyrosine Kinase-Like Orphan Receptor 1) on the cell surface (human) (UniProt Q01973); assay: as above; remark: listed apart in the source
[7] = target: human ROR1 (Receptor Tyrosine Kinase-Like Orphan Receptor 1) on the cell surface (human) (UniProt Q01973); assay: as above; remark: listed apart in the source
[8] = target: human ROR1 (Receptor Tyrosine Kinase-Like Orphan Receptor 1) on the cell surface (human) (UniProt Q01973); assay: as above; remark: listed apart in the source

Chain of human ROR1 (Receptor Tyrosine Kinase-Like Orphan Receptor 1) on the cell surface (human) (Q01973 30-937): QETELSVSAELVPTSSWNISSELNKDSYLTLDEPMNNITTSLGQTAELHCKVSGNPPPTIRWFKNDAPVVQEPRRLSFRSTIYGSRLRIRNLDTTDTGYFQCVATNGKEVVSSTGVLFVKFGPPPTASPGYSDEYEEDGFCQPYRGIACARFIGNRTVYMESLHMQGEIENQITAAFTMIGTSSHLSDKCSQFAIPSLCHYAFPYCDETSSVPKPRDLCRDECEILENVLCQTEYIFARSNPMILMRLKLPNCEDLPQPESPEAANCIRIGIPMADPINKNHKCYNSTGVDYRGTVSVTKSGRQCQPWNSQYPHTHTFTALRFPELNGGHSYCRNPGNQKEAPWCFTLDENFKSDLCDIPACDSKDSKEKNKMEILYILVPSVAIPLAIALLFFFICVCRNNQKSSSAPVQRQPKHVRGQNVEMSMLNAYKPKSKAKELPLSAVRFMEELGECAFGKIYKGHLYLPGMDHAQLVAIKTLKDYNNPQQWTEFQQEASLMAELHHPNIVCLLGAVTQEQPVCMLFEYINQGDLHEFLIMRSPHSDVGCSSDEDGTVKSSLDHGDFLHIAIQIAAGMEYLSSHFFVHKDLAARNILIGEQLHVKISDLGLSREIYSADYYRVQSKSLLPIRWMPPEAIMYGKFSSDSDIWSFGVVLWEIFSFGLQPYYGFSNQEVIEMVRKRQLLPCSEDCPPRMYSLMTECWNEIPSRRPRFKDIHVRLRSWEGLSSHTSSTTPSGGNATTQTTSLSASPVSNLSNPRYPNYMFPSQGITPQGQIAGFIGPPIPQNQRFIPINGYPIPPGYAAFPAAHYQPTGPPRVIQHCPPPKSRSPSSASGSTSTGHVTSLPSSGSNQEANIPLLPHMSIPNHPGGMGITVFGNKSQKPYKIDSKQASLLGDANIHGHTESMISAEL

What does the source list for Human IgG1 (antibody)?
MFI [1]: 316; MFI [2]: 30.8

How did the MFI [3] turn out when “mIgG-PE (PE labeled mouse IgG Ab) (antibody)” was run?
The MFI was 6.53.

And the MFI [1]?
The MFI was 54.

What about the MFI [4] of the same substance?
The MFI was 94.6.

What about the MFI [5] of the same substance?
The MFI was 6.1.

What about the MFI [2] of the same substance?
The MFI was 23.2.

And the MFI [6]?
Its MFI is 4.36.

What about the MFI [7] of the same substance?
The MFI was 2.08.

What about the MFI [8] of the same substance?
Its MFI is 4.31.

Which MFI [3] does the source give for “Hen Egg Lysozyme (HEL)-specific antibody” here?
Its MFI is 13.3.

And the MFI [4]?
Its MFI is 1140.

And the MFI [5]?
The MFI was 9.86.

What about the MFI [6] of the same substance?
Its MFI is 12.1.

And the MFI [7]?
The MFI was 3.86.

What about the MFI [8] of the same substance?
Its MFI is 6.85.

For “goat anti human IgG-Fc specific PE secondary antibody, alone”, which MFI [3] is on record?
Its MFI is 9.92.

What about the MFI [1] of the same substance?
The MFI was 45.3.

What about the MFI [4] of the same substance?
The MFI was 125.

And the MFI [5]?
Its MFI is 5.67.

And the MFI [2]?
Its MFI is 22.6.

What about the MFI [6] of the same substance?
The MFI was 15.5.

And the MFI [7]?
Its MFI is 3.01.

What about the MFI [8] of the same substance?
Its MFI is 4.45.
